Laboratory results from patent publication US20230340114A1 (IMMUNE ONC THERAPEUTICS, published 2023).

Tests used:
[1] = target: T1, human LILRB4 expressed on cells (human, UniProt Q8NHJ6 22-448); test: cell-based or functional assay
[2] = target: T2, recombinant human LILRB4 protein (Sino Biological, cat #16742-H08H) (human, UniProt Q8NHJ6 22-259); test: SPR (Biacore 8K), LILRB4 immobilized on CM5 chip, bispecific as analyte, 1:1 model
T2 construct: extracellular domain; also called LILRB4 recombinant protein (Sino Biological); Human LILRB4 ECD-his; not shown: his tag
Protocol: (§1) Binding affinities of first-generation bispecific antibodies to recombinant CD3e-CD3d heterodimer protein (Acro Biosystems) or LILRB4 recombinant protein (Sino Biological) were measured by surface plasmon resonance using a Biacore 8K instrument. Briefly, CD3e-CD3d or LILRB4 protein was immobilized on a CM5 chip with EDC and NHS according to standard protocols. […] The chip was regenerated using 10 mM glycine pH 1.5 as the regeneration buffer. The sensorgrams for reference channel Fc1 and buffer channel were subtracted from the test sensorgrams and the experimental data was fitted by 1:1 binding model.

[3] = target: recombinant CD3e-CD3d heterodimer protein (Acro Biosystems) (UniProt P07766 23-126; P04234 22-105); test: SPR (Biacore 8K), CD3e-CD3d immobilized on CM5 chip, bispecific as analyte, 1:1 model
recombinant CD3e-CD3d heterodimer protein (Acro Biosystems), sequence (P07766 23-126 limits assumed, chain 1 of 2): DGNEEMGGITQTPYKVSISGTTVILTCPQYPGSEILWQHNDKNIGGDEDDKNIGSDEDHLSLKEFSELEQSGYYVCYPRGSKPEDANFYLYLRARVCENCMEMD
recombinant CD3e-CD3d heterodimer protein (Acro Biosystems), sequence (P04234 22-105 limits assumed, chain 2 of 2): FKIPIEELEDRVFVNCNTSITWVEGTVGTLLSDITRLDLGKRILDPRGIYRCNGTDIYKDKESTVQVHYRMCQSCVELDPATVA
Protocol: as §1

[4] = target: T3, flag-tagged cynomolgus monkey LILRB4 expressed on CHO-K1 cells (cynomolgus monkey); test: FACS, CHO-stable cells expressing cyno LILRB4
T3 construct: whole, on cells; also called cyno LILRB4

[5] = target: T1, human LILRB4 expressed on cells; test: FACS, CHO-stable cells expressing human LILRB4

Binder | Monocyte (max %), Donor 1 [1] [%] | Monocyte (max %), Donor 2 [1] [%] | Monocyte (max %), Donor 3 [1] [%] | Monocyte killing EC50, Donor 2 [1] [pM] | T-cell cytotoxicity, THP-1 (max %) [1] [%] | T-cell cytotoxicity, THP-1 EC50 [1] [pM] | Kd [2] [pM] | Kd [3] [pM] | EC50 [4] [pM] | EC50 [5] [pM] | Monocyte killing EC50, Donor 1 [1] [pM] | Monocyte killing EC50, Donor 3 [1] [pM] | T-cell cytotoxicity, THP-1 EC50 (estimated) [1] [pM]
44-3ab (bispecific antibody, human IgG1, kappa, L234A L235A, also called first-generation LILRB4/CD3 bispecific antibody No. 3) heavy 1: not shown heavy 2: EVQLVESGGGLVQPGGSLRLSCAASGFSLSSSYWISWVRQAPGKGLEWIGSIDSGSVGITYYATWVKGRFTISRDNSKNTLYLQMNSLRAEDTAVYYCARHGDNWALDLWGQGTLVTVSSASTKGPSVFPLAPSSKSTSGGTAALGCLVKDYFPEPVTVSWNSGALTSGVHTFPAVLQSSGLYSLSSVVTVPSSSLGTQTYICNVNHKPSNTKVDKRVEPKSCGGGGSGGGGSEVQLVESGGGLVQPGGSLRLSCAASGFSLSSSYWISWVRQAPGKGLEWIGSIDSGSVGITYYATWVKGRFTISRDNSKNTLYLQMNSLRAEDTAVYYCARHGDNWALDLWGQGTLVTVSSASTKGPSVFPLAPSSKSTSGGTAALGCLVKDYFPEPVTVSWNSGALTSGVHTFPAVLQSSGLYSLSSVVTVPSSSLGTQTYICNVNHKPSNTKVDKRVEPKSCDKTHTCPPCPAPEAAGGPSVFLFPPKPKDTLMISRTPEVTCVVVDVSHEDPEVKFNWYVDGVEVHNAKTKPREEQYNSTYRVVSVLTVLHQDWLNGKEYKCKVSNKALPAPIEKTISKAKGQPREPQVCTLPPSREEMTKNQVSLSCAVKGFYPSDIAVEWESNGQPENNYKTTPPVLDSDGSFFLVSKLTVDKSRWQQGNVFSCSVMHEALHNHYTQKSLSLSPG light 1: DIVMTQSPDSLAVSLGERATINCKSSQSLLNSRTRKNYLAWYQQKPGQPPKLLIYWASTRQSGVPDRFSGSGSGTDFTLTISSLQAEDVAVYYCTQSHTLRTFGGGTKVEIKPDIQNPDPAVYQLRDSKSSDKSVCLFTDFDSQTQVSQSKDSDVYITDKCVLDMRSMDFKSNSAVAWSQKSDFACANAFQNSIIPEDTFFPSPESS light 2: DIQMTQSPSTLSASVGDRVTITCRASQSISSWLAWYQQKPGKAPKLLIYKASTLASGVPSRFSGSGSGTEFTLTISSLQPDDFATYYCQHGYIRGDLDNVFGGGTKVEIKRTVAAPSVFIFPPSDEQLKSGTASVVCLLNNFYPREAKVQWKVDNALQSGNSQESVTEQDSKDSTYSLSSTLTLSKADYEKHKVYACEVTHQGLSSPVTKSFNRGEC | 39 | 30 | 0 | 3.4 | 96.4 | 0.43 | 230 | 42100 | – | – | – | – | –
H7K3 variant 5, K3m1 (N/V) (antibody, V domains shown) VH: EVQLVESGGGLVQPGGSLRLSCAASGFSLSSSYWISWVRQAPGKGLEWIGSIDSGSVGITYYATWVKGRFTISRDNSKNTLYLQMNSLRAEDTAVYYCARHGDNWALDLWGQGTLVTVSS VL: DIQMTQSPSTLSASVGDRVTITCRASQSIVSWLAWYQQKPGKAPKLLIYKASTLASGVPSRFSGSGSGTEFTLTISSLQPDDFATYYCQHGYIRGDLDNVFGGGTKVEIK | – | – | – | – | – | – | – | – | 1230 | 463 | – | – | –
H7K3 variant 8, K3m4 (N/Q) (antibody, V domains shown) VH: EVQLVESGGGLVQPGGSLRLSCAASGFSLSSSYWISWVRQAPGKGLEWIGSIDSGSVGITYYATWVKGRFTISRDNSKNTLYLQMNSLRAEDTAVYYCARHGDNWALDLWGQGTLVTVSS VL: DIQMTQSPSTLSASVGDRVTITCRASQSIQSWLAWYQQKPGKAPKLLIYKASTLASGVPSRFSGSGSGTEFTLTISSLQPDDFATYYCQHGYIRGDLDNVFGGGTKVEIK | – | – | – | – | – | – | – | – | 989 | 480 | – | – | –
H7K3 variant 11, K3m7 (S/Q) (antibody, V domains shown) VH: EVQLVESGGGLVQPGGSLRLSCAASGFSLSSSYWISWVRQAPGKGLEWIGSIDSGSVGITYYATWVKGRFTISRDNSKNTLYLQMNSLRAEDTAVYYCARHGDNWALDLWGQGTLVTVSS VL: DIQMTQSPSTLSASVGDRVTITCRASQSINQWLAWYQQKPGKAPKLLIYKASTLASGVPSRFSGSGSGTEFTLTISSLQPDDFATYYCQHGYIRGDLDNVFGGGTKVEIK | – | – | – | – | – | – | – | – | 974 | 455 | – | – | –
H7K3 variant 12, K3m8 (S/V) (antibody, V domains shown) VH: EVQLVESGGGLVQPGGSLRLSCAASGFSLSSSYWISWVRQAPGKGLEWIGSIDSGSVGITYYATWVKGRFTISRDNSKNTLYLQMNSLRAEDTAVYYCARHGDNWALDLWGQGTLVTVSS VL: DIQMTQSPSTLSASVGDRVTITCRASQSINVWLAWYQQKPGKAPKLLIYKASTLASGVPSRFSGSGSGTEFTLTISSLQPDDFATYYCQHGYIRGDLDNVFGGGTKVEIK | – | – | – | – | – | – | – | – | 933 | 402 | – | – | –
4ab4ab-3 (bispecific antibody, human IgG1, kappa, L234A L235A, also called first-generation LILRB4/CD3 bispecific antibody No. 4) heavy 1: not shown heavy 2: EVQLVESGGGLVQPGGSLRLSCAASGFSLSSSYWISWVRQAPGKGLEWIGSIDSGSVGITYYATWVKGRFTISRDNSKNTLYLQMNSLRAEDTAVYYCARHGDNWALDLWGQGTLVTVLEDLKNVFPPEVAVFEPSEAEISHTQKATLVCLATGFYPDHVELSWWVNGKEVHSGVCTDPQPLKEQPALQDSRYALSSRLRVSATFWQNPRNHFRCQVQFYGLSENDEWTQDRAKPVTQIVSAEAWGRGGGGSGGGGSEVQLVESGGGLVQPGGSLRLSCAASGFSLSSSYWISWVRQAPGKGLEWIGSIDSGSVGITYYATWVKGRFTISRDNSKNTLYLQMNSLRAEDTAVYYCARHGDNWALDLWGQGTLVTVLEDLKNVFPPEVAVFEPSEAEISHTQKATLVCLATGFYPDHVELSWWVNGKEVHSGVCTDPQPLKEQPALQDSRYALSSRLRVSATFWQNPRNHFRCQVQFYGLSENDEWTQDRAKPVTQIVSAEAWGRASDKTHTCPPCPAPELLGGPSVFLFPPKPKDTLMISRTPEVTCVVVDVSHEDPEVKFNWYVDGVEVHNAKTKPREEQYNSTYRVVSVLTVLHQDWLNGKEYKCKVSNKALPAPIEKTISKAKGQPREPQVCTLPPSREEMTKNQVSLSCAVKGFYPSDIAVEWESNGQPENNYKTTPPVLDSDGSFFLVSKLTVDKSRWQQGNVFSCSVMHEALHNHYTQKSLSLSPG light 1: not shown light 2: DIQMTQSPSTLSASVGDRVTITCRASQSISSWLAWYQQKPGKAPKLLIYKASTLASGVPSRFSGSGSGTEFTLTISSLQPDDFATYYCQHGYIRGDLDNVFGGGTKVEIKPDIQNPDPAVYQLRDSKSSDKSVCLFTDFDSQTQVSQSKDSDVYITDKCVLDMRSMDFKSNSAVAWSQKSDFACANAFQNSIIPEDTFFPSPESS | 55 | 59 | 54.5 | 0.32 | 98.3 | – | 260 | 26800 | – | – | 1.3 | 2.9 | < 0.01
43ab-4 (bispecific antibody, human IgG1, kappa, L234A L235A, also called first-generation LILRB4/CD3 bispecific antibody No. 5) heavy 1: not shown heavy 2: EVQLVESGGGLVQPGGSLRLSCAASGFSLSSSYWISWVRQAPGKGLEWIGSIDSGSVGITYYATWVKGRFTISRDNSKNTLYLQMNSLRAEDTAVYYCARHGDNWALDLWGQGTLVTVSSASTKGPSVFPLAPSSKSTSGGTAALGCLVKDYFPEPVTVSWNSGALTSGVHTFPAVLQSSGLYSLSSVVTVPSSSLGTQTYICNVNHKPSNTKVDKRVEPKSCDKTHTCPPCPAPEAAGGPSVFLFPPKPKDTLMISRTPEVTCVVVDVSHEDPEVKFNWYVDGVEVHNAKTKPREEQYNSTYRVVSVLTVLHQDWLNGKEYKCKVSNKALPAPIEKTISKAKGQPREPQVCTLPPSREEMTKNQVSLSCAVKGFYPSDIAVEWESNGQPENNYKTTPPVLDSDGSFFLVSKLTVDKSRWQQGNVFSCSVMHEALHNHYTQKSLSLSPG light 1: DIVMTQSPDSLAVSLGERATINCKSSQSLLNSRTRKNYLAWYQQKPGQPPKLLIYWASTRQSGVPDRFSGSGSGTDFTLTISSLQAEDVAVYYCTQSHTLRTFGGGTKVEIKPDIQNPDPAVYQLRDSKSSDKSVCLFTDFDSQTQVSQSKDSDVYITDKCVLDMRSMDFKSNSAVAWSQKSDFACANAFQNSIIPEDTFFPSPESS light 2: DIQMTQSPSTLSASVGDRVTITCRASQSISSWLAWYQQKPGKAPKLLIYKASTLASGVPSRFSGSGSGTEFTLTISSLQPDDFATYYCQHGYIRGDLDNVFGGGTKVEIKRTVAAPSVFIFPPSDEQLKSGTASVVCLLNNFYPREAKVQWKVDNALQSGNSQESVTEQDSKDSTYSLSSTLTLSKADYEKHKVYACEVTHQGLSSPVTKSFNRGEC | 45 | 0 | 42 | – | 98.7 | – | 290 | 47000 | – | – | 0.19 | 0.084 | < 0.01
4ab3-4ab (bispecific antibody, human IgG1, kappa, L234A L235A, also called first-generation LILRB4/CD3 bispecific antibody No. 6) heavy 1: not shown heavy 2: EVQLVESGGGLVQPGGSLRLSCAASGFSLSSSYWISWVRQAPGKGLEWIGSIDSGSVGITYYATWVKGRFTISRDNSKNTLYLQMNSLRAEDTAVYYCARHGDNWALDLWGQGTLVTVLEDLKNVFPPEVAVFEPSEAEISHTQKATLVCLATGFYPDHVELSWWVNGKEVHSGVCTDPQPLKEQPALQDSRYALSSRLRVSATFWQNPRNHFRCQVQFYGLSENDEWTQDRAKPVTQIVSAEAWGRASDKTHTCPPCPAPEAAGGPSVFLFPPKPKDTLMISRTPEVTCVVVDVSHEDPEVKFNWYVDGVEVHNAKTKPREEQYNSTYRVVSVLTVLHQDWLNGKEYKCKVSNKALPAPIEKTISKAKGQPREPQVCTLPPSREEMTKNQVSLSCAVKGFYPSDIAVEWESNGQPENNYKTTPPVLDSDGSFFLVSKLTVDKSRWQQGNVFSCSVMHEALHNHYTQKSLSLSPG light 1: not shown light 2: DIQMTQSPSTLSASVGDRVTITCRASQSISSWLAWYQQKPGKAPKLLIYKASTLASGVPSRFSGSGSGTEFTLTISSLQPDDFATYYCQHGYIRGDLDNVFGGGTKVEIKPDIQNPDPAVYQLRDSKSSDKSVCLFTDFDSQTQVSQSKDSDVYITDKCVLDMRSMDFKSNSAVAWSQKSDFACANAFQNSIIPEDTFFPSPESS | 29 | 44 | 44 | 0.93 | 98.1 | – | 260 | 57300 | – | – | 0.43 | 1.6 | < 0.01
